Source: paper PMC8725580
Positions count from the first letter of the chain named.

Assays:
Conditions in all cases: 20 mM Tris pH 7.5, 1 mM CaCl2, 1 mM DTT, 10 ug/ml poly(dI-dC), 100 ug/ml BSA, 37 C, 10 min; probe 0.05 uM (0.1 uM restricted)
[1] = system: T1, CovR D53E D52E (Streptococcus salivarius HSISS4), ORF:ee641105; assay: competition
T1 sequence: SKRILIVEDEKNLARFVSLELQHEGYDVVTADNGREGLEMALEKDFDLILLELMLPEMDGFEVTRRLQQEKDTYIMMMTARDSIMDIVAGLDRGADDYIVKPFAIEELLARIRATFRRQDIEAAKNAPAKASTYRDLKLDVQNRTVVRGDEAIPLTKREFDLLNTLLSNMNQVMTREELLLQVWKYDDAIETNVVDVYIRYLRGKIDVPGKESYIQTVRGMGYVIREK

[2] = system: T2, CovR D53A D52A (Streptococcus salivarius HSISS4), ORF:ee641105; assay: EMSA
T2 sequence: T1 sequence with E52A

[3] = system: T1, CovR D53E D52E (Streptococcus salivarius HSISS4), ORF:ee641105; assay: EMSA
[4] = system: T3, CovR WT (Strep-tagged) (Streptococcus salivarius HSISS4), ORF:ee641105; assay: EMSA
T3 sequence: T1 sequence with E52D

Sequence | binding [1] | binding [2] | binding [3] | binding [4]
AAAAATAATGAGCACTTAAAAGAATGGGATAAGGACAATATCAAAAATGTTGTTCTATCTCATTCTTTTTGTTTGAAACAGTTAATATGGTAGAGGCGTTTTTACTAGTAGCGTATGCTATAATAGAAAGATAGAAAGGAGGCCTTCATG (double strand) [PdnaE unlabeled competitor] | no binding |  |  | 
CAAGAGACACTCCTTTATTTCGAAATTTTAAAAACATTATATCATAATTATAATATAATTAATATACAGTTAATGCATTTTTAACAGAACAATAGTGAAAATAAGCTATTTTTATACATTTTATATAGGAAAGACCTTCCTTTGTATCAA (double strand) [PcomR unlabeled competitor] | binds |  |  | 
CCTGTAGTTCCCTTACATACAGTGCGTTACTTTGAGAATGCAGACCGCTCGACGATTCAGATGTTGCATGCCATCTCGCAAAACGTTTCCTTGTCAGAGGCCTCTATTTGTCCTATGAATCAGCTTCTTTTCTCGCCTCAAGAAATGGAA (double strand) [CDSdnaE unlabeled competitor] | no binding |  |  | 
TTGATACAAAGGAAGGTCTTTCCTATATAAAATGTATAAAAATAGCTTATTTTCACTATTGTTCTGTTAAAAATGCATTAACTGTATATTAATTATATTATAATTATGATATAATGTTTTTAAAATTTCGAAATAAAGGAGTGTCTCTTG (double strand) [PcomR HSISS4 (150 bp)] |  | binds more weakly | binds | binds
